The values below come from article PMC3609778, “Truncated and Helix-Constrained Peptides with High Affinity and Specificity for the cFos Coiled-Coil of AP-1” (PLoS ONE, 2013).

Where a SMILES comes first, the peptide text is derived from it. Bridges are numbered along the chain shown (N, C = ends).

A short description of the data set: circular dichroism. Conditions: 10 mM K phosphate, 100 mM KF; pH 7; 20 °C; 150 uM. For orientation: Circular dichroism is widely used to follow secondary structure.
Take `CC[C@H](C)[C@H](NC(=O)[C@H](Cc1c[nH]cn1)NC(=O)[C@@H]1CC(=O)NCCCC[C@H](NC(=O)[C@H](C)NC(=O)[C@H](CC(C)C)NC(=O)[C@H](CO)NC(=O)[C@H](CCCNC(=N)N)NC(=O)[C@H](CC(C)C)NC(=O)[C@@H]2CC(=O)NCCCC[C@H](NC(=O)[C@H](CCCCN)NC(=O)[C@H](CC(C)C)NC(C)=O)C(=O)N[C@@H](CCC(=O)O)C(=O)N[C@@H]([C@@H](C)CC)C(=O)N[C@@H](Cc3ccc(O)cc3)C(=O)N2)C(=O)N[C@@H](CCSC)C(=O)N[C@@H](CC(C)C)C(=O)N[C@@H](CCCNC(=N)N)C(=O)N1)C(=O)N[C@@H](C)C(=O)N[C@@H](CCC(N)=O)C(=O)N[C@@H](CC(C)C)C(N)=O` (Ac-LKKEIYDLRSLAKMLRDHIAQL-NH2; lactam 3-7, 13-17): the helicity amounted to 0.34 frac.

On to `CC[C@H](C)[C@@H]1NC(=O)[C@H](CCC(=O)O)NC(=O)[C@@H](NC(=O)[C@H](CCCCN)NC(=O)[C@H](CC(C)C)NC(C)=O)CCCCNC(=O)C[C@@H](C(=O)N[C@@H](CC(C)C)C(=O)N[C@@H](CCCNC(=N)N)C(=O)N[C@@H](CCCCN)C(=O)N[C@@H](CCCCN)C(=O)N[C@@H](C)C(=O)N[C@H]2CCCCNC(=O)C[C@@H](C(=O)N[C@@H](Cc3c[nH]cn3)C(N)=O)NC(=O)[C@H](CCCNC(=N)N)NC(=O)[C@H](CC(C)C)NC(=O)[C@H](CCSC)NC2=O)NC(=O)[C@H](Cc2ccc(O)cc2)NC1=O` (Ac-LKKEIYDLRKKAKMLRDH-NH2; lactam 3-7, 13-17), for which the helicity is 0.49 frac.

On to `CC[C@H](C)[C@H](NC(=O)[C@H](Cc1c[nH]cn1)NC(=O)[C@@H]1CC(=O)NCCCC[C@H](NC(=O)[C@H](Cc2ccccc2)NC(=O)[C@H](CCCCN)NC(=O)[C@H](CO)NC(=O)[C@H](CCCNC(=N)N)NC(=O)[C@H](CC(C)C)NC(=O)[C@@H]2CC(=O)NCCCC[C@H](NC(=O)[C@H](CCCCN)NC(=O)[C@H](CC(C)C)NC(C)=O)C(=O)N[C@@H](CCC(=O)O)C(=O)N[C@@H]([C@@H](C)CC)C(=O)N[C@@H](Cc3ccc(O)cc3)C(=O)N2)C(=O)N[C@@H](CCSC)C(=O)N[C@@H](CC(C)C)C(=O)N[C@@H](CCCNC(=N)N)C(=O)N1)C(=O)N[C@@H](C)C(=O)N[C@@H](CCC(N)=O)C(=O)N[C@@H](CC(C)C)C(N)=O` (Ac-LKKEIYDLRSKFKMLRDHIAQL-NH2; lactam 3-7, 13-17), for which the helicity turned out to be 0.37 frac.

`CC[C@H](C)[C@H](NC(C)=O)C(=O)N[C@@H](Cc1ccc(O)cc1)C(=O)N[C@@H](CCC(=O)O)C(=O)N[C@@H](CC(C)C)C(=O)N[C@@H](CCCNC(=N)N)C(=O)N[C@@H](CO)C(=O)N[C@@H](CCCCN)C(=O)N[C@@H](C)C(=O)N[C@H]1CCCCNC(=O)C[C@@H](C(=O)N[C@@H](Cc2c[nH]cn2)C(=O)N[C@H](C(=O)N[C@@H](C)C(=O)N[C@@H](CCC(N)=O)C(=O)N[C@@H](CC(C)C)C(N)=O)[C@@H](C)CC)NC(=O)[C@H](CCCNC(=N)N)NC(=O)[C@H](CC(C)C)NC(=O)[C@H](CCSC)NC1=O` (Ac-IYELRSKAKMLRDHIAQL-NH2; lactam 9-13): the helicity is 0.34 frac.

`CC[C@H](C)[C@H](NC(C)=O)C(=O)N[C@H]1CCCCNC(=O)C[C@@H](C(=O)N[C@@H](CCCCN)C(=O)N[C@@H](C)C(=O)N[C@@H](CC(N)=O)C(=O)N[C@@H](CCSC)C(=O)N[C@@H](CC(C)C)C(=O)N[C@@H](CCCNC(=N)N)C(=O)N[C@@H](CCC(=O)O)C(=O)N[C@@H](Cc2c[nH]cn2)C(=O)N[C@H](C(=O)N[C@@H](C)C(=O)N[C@@H](CCC(N)=O)C(=O)N[C@@H](CC(C)C)C(N)=O)[C@@H](C)CC)NC(=O)[C@H](CCCNC(=N)N)NC(=O)[C@H](CC(C)C)NC(=O)[C@H](CCC(=O)O)NC1=O` (Ac-IKELRDKANMLREHIAQL-NH2; lactam 2-6) gave a helicity of 0.3 frac.
